Key:
SEC = biological target: the molecule itself; experiment: SEC
mass spectrometry = biological target: the molecule itself; experiment: mass spectrometry

B1: Sso6206, recombinant, His tag cleaved by TEV protease (natural protein, Sulfolobus solfataricus P2)
chain: GAMAIRRLVLDVLKPIRGTSIVDLAERISKLDGVEGVNISVTDMDVETMGLMIIIEGTSLNFDDIRKMLEEEGCAIHSIDEVVSGNRIIEGKIKDDL
- stoichiometry N (SEC): > 10 monomers per protomer
- stoichiometry N (mass spectrometry): ≤ 6

From publication PMC2197187 (Acta Crystallographica Section F: Structural Biology and …, 2006)
